This note sets out measurements from patent US20110110945A1, “Immunoglobulin Fusion Proteins and Methods of Making” (TransTech Pharma, Inc., priority 2007, published 2011).

For one data set, the target named is T1, S100b (Homo sapiens, UniProt P04271).
T1 sequence (P04271 1-92): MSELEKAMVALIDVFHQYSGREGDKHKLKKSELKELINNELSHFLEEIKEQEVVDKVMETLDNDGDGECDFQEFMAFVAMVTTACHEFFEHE
In words: In vitro ligand binding assay (ELISA), immobilized S100b. The following applies: ligand 5 micrograms per well; dilutions of initial fusion protein solution; FIG. 7. The procedure: (§1) For example, the fusion protein may be used in a binding assay to identify potential ligands that bind to the non-immunoglobulin protein. In one example embodiment of such a binding assay, a known ligand may coated onto a solid substrate (e.g., Maxisorb plates) at a biologically relevant concentration (e.g., about 5 micrograms per well), where each well contains a total volume of about 100 microliters (μL). The plates may be incubated at 4° C. overnight to allow the ligand to bind to the substrate. Alternatively, shorter incubation periods at higher temperature (e.g., room temperature) may be used. After a period of time to allow for the ligand to bind to the substrate, the assay wells may be aspirated and a blocking buffer (e.g., 1% BSA in 50 mM imidizole buffer, pH 7.2) may be added to block nonspecific binding. […] The fusion protein bound to the immobilized ligand may be detected in a variety of ways. […] The bound complex may be detected by adding a substrate for the secondary antibody complex, e.g., the alkaline phosphatase substrate, para-nitrophenylphosphate (PNPP), and measuring conversion of PNPP to para-nitrophenol (PNP) as an increase in absorbance at 405 nm. […] In the absence of ligand (i.e., coating with only BSA) there was no increase in absorbance. The binding assay of the present invention may be used to quantify ligand binding. […]

Data set [1] concerns the target T2, amyloid-beta (Amyloid Beta (1-40)) (Homo sapiens, UniProt P05067).
T2 construct: Amyloid Beta (1-40) from Biosource; purchased Biosource
The data set is described as follows: In vitro ligand binding assay (ELISA), immobilized amyloid-beta. The following applies: ligand 5 micrograms per well; dilutions of initial fusion protein solution; FIG. 7. The procedure: as §1
(An ELISA detects its analyte on a solid surface through an enzyme-linked reagent.)

For data set [2], the system named is Zucker diabetic rats, balloon injury of left common carotid artery. In words: Diabetic rat model of restenosis (balloon injury of left common carotid artery). The class given is in vivo. The following applies: for Intimal area / Medial area: IP, 21 days, mean±SD. The procedure: For example, fusion proteins of the present invention comprising a RAGE ligand binding site have been used in the treatment of diabetes related pathology. […] Use of the RAGE fusion proteins in the treatment of diabetes related pathology is illustrated in Table 1.
In these experiments, balloon injury of left common carotid artery was performed in Zucker diabetic and nondiabetic rats using standard procedure. […] A maintenance dose was delivered every other day until day 7 after injury (i.e., at day 1, 3, 5 and 7 after injury). The maintenance dose was high=1 mg/animal for one group, or low=0.3 mg/animal for the second group. To measure vascular smooth muscle cell (VSMC) proliferation, animals were sacrificed at 4 days and 21 days after injury.
For the measurement of cell proliferation, 4 day animals received intraperitoneal injection of bromodeoxyuridine (BrDdU) 50 mg/kg at 18, 12, and 2 hours before euthanasia. After sacrifice, the entire left and right carotid arteries were harvested. Specimens were stored in Histochoice for at least 24 hours before embedding. Assessment of VSMC proliferation was performed using mouse anti-BrdU monoclonal antibody. A fluorescence labeled goat anti-mouse secondary antibody was applied. The number of BrdU-positive nuclei per section were counted by two observers blinded to the treatment regimens.
The remaining rats were sacrificed at 21 days for morphometric analysis. Morphometric analyses were performed by an observer blinded to the study groups, using computerized digital microscopic planimetry software Image-Pro Plus on serial sections, ([…]) carotid arteries stained by Van Gieson staining All data were expressed as mean±SD. Statistical analysis was performed with use of SPSS software. Continuous variables were compared using unpaired t tests. A values of P≦0.05 was considered to be statistically significant.

A further data set has as its system mice that have AD. The data set is described as follows: Mice that have Alzheimer's Disease, treated for 3 months. Format: in vivo. The following applies: versus vehicle or human IgG negative control (IgG1). From the text:
Also, fusion proteins of the present invention comprising a RAGE ligand binding site may also be used to treat reduce amyloidosis and to reduce amyloid plaques and cognitive dysfunction associated with Alzheimer's Disease (AD).

Setting [3] is: High dose 1.0 mg/animal qod × 4, loading dose 3 mg/animal.
The mark [4] stands for this setting: Low dose 0.3 mg/animal qod × 4, loading dose 3 mg/animal.

Entries after “also recorded” stand apart in the source; their conditions may differ.

T2 sequence (P05067 672-711 limits assumed): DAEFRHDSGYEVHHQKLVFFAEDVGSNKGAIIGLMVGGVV

B1: TTP-4000: RAGE fusion protein: V and C1 domains of human RAGE (amino acids 1-251) linked to hinge-less CH2 and CH3 of human IgG1; SEQ ID NO: 16/18 (protein)
chain 1: MAAGTAVGAWVLVLSLWGAVVGAQNITARIGEPLVLKCKGAPKKPPQRLEWKLNTGRTEAWKVLSPQGGGPWDSVARVLPNGSLFLPAVGIQDEGIFRCQAMNRNGKETKSNYRVRVYQIPGKPEIVDSASELTAGVPNKVGTCVSEGSYPAGTLSWHLDGKPLVPNEKGVSVKEQTRRHPETGLFTLQSELMVTPARGGDPRPTFSCSFSPGLPRHRALRTAPIQPRVWEPVPLEEVQLVVEPEGGAVAPPSVFLFPPKPKDTLMISRTPEVTCVVVDVSHEDPEVKFNWYVDGVEVHNAKTKPREEQYNSTYRVVSVLTVLHQDWLNGKEYKCKVSNKALPAPIEKTISKAKGQPREPQVYTLPPSRDELTKNQVSLTCLVKGFYPSDIAVEWESNGQPENNYKTTPPVLDSDGSFFLYSKLTVDKSRWQQGNVFSCSVMHEALHNHYTQKSLSLSPGK
chain 2: ENITARIGEPLVLKCKGAPKKPPQRLEWKLNTGRTEAWKVLSPQGGGPWDSVARVLPNGSLFLPAVGIQDEGIFRCQAMNRNGKETKSNYRVRVYQIPGKPEIVDSASELTAGVPNKVGTCVSEGSYPAGTLSWHLDGKPLVPNEKGVSVKEQTRRHPETGLFTLQSELMVTPARGGDPRPTFSCSFSPGLPRHRALRTAPIQPRVWEPVPLEEVQLVVEPEGGAVAPPSVFLFPPKPKDTLMISRTPEVTCVVVDVSHEDPEVKFNWYVDGVEVHNAKTKPREEQYNSTYRVVSVLTVLHQDWLNGKEYKCKVSNKALPAPIEKTISKAKGQPREPQVYTLPPSRDELTKNQVSLTCLVKGFYPSDIAVEWESNGQPENNYKTTPPVLDSDGSFFLYSKLTVDKSRWQQGNVFSCSVMHEALHNHYTQKSLSLSPGK
modifications: synthetic four domain RAGE-Fc IgG fusion protein; synthetic four domain RAGE-Fc IgG fusion protein having signal sequence removed
B1: the “binding to immobilized S100b (increase in absorbance at 405 nm)” value with S100b was “able to bind; also recorded: specifically interact”. Further, in data set [1], the “binding to immobilized amyloid-beta (increase in absorbance at 405 nm)” value is listed as “able to bind; also recorded: specifically interact”. For the same molecule, the “vascular smooth muscle cell proliferation (BrdU-positive nuclei), in words” value in data set [2] (4 days after injury, dose-responsive) is reported as “significantly reduced”. Besides, in data set [2] (setting [3]), the Intimal area was determined as 0.16 ± 0.02 mm^2 and the Medial area worked out at 0.11 ± 0.01 mm^2. In addition, in data set [2] (setting [4]), the Intimal area amounted to 0.18 ± 0.04 mm^2 and the Medial area amounted to 0.11 ± 0.02 mm^2. Further, in the data set with mice that have AD, the “amyloid beta (Aβ) plaques” value is listed as “fewer amyloid beta (Aβ) plaques” and the cognitive dysfunction result is recorded as “less cognitive dysfunction”.
